For experiment [1], the target named is T1, early pandemic (Wuhan) SARS-CoV-2 RBD (SARS-CoV-2, UniProt P0DTC2). As to the kind of experiment: SPR. (In general: SPR reads the build-up and loss of mass on a sensor chip optically.)
The target of experiment [2] is T1, early pandemic (Wuhan) SARS-CoV-2 RBD. As to the kind of experiment: SPR. This is another data set of the same source.

B1: EY6A mAb (IgG) (antibody, V domains shown)
VH: EVQLVESGGGVVQPGRSLRLSCAASAFTFSSYDMHWVRQAPGKGLEWVAVISYDGSNKYYADSVKGRFTISRDNSKNTLYLQMNSLRAEDTAVYYCAKDGGKLWVYYFDYWGQGTLVTVSS
VL: not shown
Consider B1, for which the koff (usually the rate constant with which the complex falls apart) in experiment [1] is 0.0048 s⁻¹.

B2: Beta-55 mAb (IgG) (antibody, V domains shown)
VH: QVQLQESGPGLVKPSETLSLTCTVSGDSISSSRYYWGWIRQPPGKGLEWIGTFYYSGITYYNPSLKSRVTIFVDTSKNQFSLKLSSVTAADTAVYYCARPRPPDYYDNSGALLFDIWGQGTMVTVSS
VL: AIRMTQSPSTLSASVGDRVTIACRASQSISAWLAWYQQKPGKAPKLLIYKASSLESGVPSRFSGSGSGTEFTLTINSLQPDDFATYYCQQYISSSPWTFGQGTKVEIK
In the case of B2, the equilibrium dissociation constant (Kd) (in general, the concentration at which binding is half-saturated) in experiment [2] was found to be 177 pM. The koff in experiment [1] was 0.00018 s⁻¹.

These data come from article doi:10.1101/2021.12.03.471045 (2021).
